Assay results reported in patent publication US20200277374A1 (Alector, published 2020).

Experiments:
[1] = molecular target: T1, human Siglec-7 expressed on human cells (primary monocytes, dendritic cells, macrophages, NK cells, … (human, UniProt Q9Y286 19-467)); assay: cell-based or functional assay
[2] = molecular target: T1, human Siglec-7 expressed on human cells …; assay: FACS titration on primary human dendritic cells, donor 358, 4 C
Experimental: (§1) Two Siglec-7 antibodies, 4E3 and 10B5, were titrated 2-fold for a 12-point curve with a concentration range of 6.67-0.00325 nM to assess binding and calculate half-maximal concentration (EC₅₀) for binding to primary human dendritic cells (FIG. 5B). Antibodies were serially diluted and incubated with cells in PBS with 1% BSA, 1 mM EDTA for 1 hour on ice (4° C.). Cells were pelleted and resuspended with goat anti-mouse secondary antibody conjugated with APC (BD Biosciences) at a 1:200 dilution in buffer. Secondary detection antibody was incubated for 30 minutes on ice (4° C.), then cells were washed 3 times in buffer before analyzing on a BD FACS Canto for APC MR. Data were analyzed with FlowJo Software (TreeStar).

[3] = molecular target: T2, Histidine-tagged human Siglec-7 (NovoProtein) (human, UniProt Q9Y286 19-357, limits assumed); assay: SPR (BiaCore T200, 25 C), antibody captured on anti-mouse IgG, Siglec-7-His 100 nM, single-concentration kinetics
T2 construct: Bought protein; also called purified Siglec-7-his tagged protein; not shown: histidine tag
T2 sequence (Q9Y286 19-357 limits assumed): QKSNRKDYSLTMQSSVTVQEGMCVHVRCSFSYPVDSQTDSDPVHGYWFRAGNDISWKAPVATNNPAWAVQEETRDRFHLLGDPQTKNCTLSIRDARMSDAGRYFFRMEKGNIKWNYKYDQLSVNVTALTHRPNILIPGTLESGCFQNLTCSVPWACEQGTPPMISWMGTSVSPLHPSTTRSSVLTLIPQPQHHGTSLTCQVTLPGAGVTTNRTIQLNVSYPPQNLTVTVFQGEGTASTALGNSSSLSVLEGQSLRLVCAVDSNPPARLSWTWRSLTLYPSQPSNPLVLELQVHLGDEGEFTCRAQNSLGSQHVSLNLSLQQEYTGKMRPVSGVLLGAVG
Experimental: SPR data was collected at a rate of 10 Hz at 25′ C on a BiaCore T200 instrument. Data analysis was performed using BiaCore T200 Evaluation Software, version 2.0. HBS-EP+ (100 mM HEPES, 1.5 M NaCl, 30 mM EDTA, 0.5% v/v Surfactant P20, pH 7.4) was used as running buffer and for preparing reagents.
Mouse-derived antibodies (25 nM) against Siglec-7 were captured (60 s contact time, 30 μL/min flow rate, 0 s stabilization time) on a CM5 sensor chip (GE Healthcare) immobilized with anti-mouse IgG. Histidine-tagged human Siglec-7 (NovoProtein) was then flowed over the captured anti-Siglec-7 surface (120 s contact time, 30 μL/min flow rate, 300 s dissociation time). Concentration of antigen ranged from 5 nM to 100 nM, depending on information obtained from an initial screen. Duplicate single-concentration trials were performed and bracketed by a blank (0 nM antigen) sample. The chip surface was regenerated in between cycles using 10 mM glycine-HCl, pH1.7 (60 s contact time, 30 μL/min flow rate, 60 s stabilization time). The resulting SPR signal was obtained as the difference in response from measurements performed on a blank flow cell.
Affinity constants (KD) were calculated from the ratio kd/kₐ. For one antibody (clone 1E8), we validated the single-concentration analysis with a multiple-concentration approach (five concentrations of antigen used, plus one blank).

[4] = molecular target: T1, human Siglec-7 expressed on human cells …; assay: FACS, human primary macrophages, 10 ug/ml mAb
[5] = molecular target: T1, human Siglec-7 expressed on human cells …; assay: cell-based or functional assay; remark: listed apart in the source
[6] = molecular target: T1, human Siglec-7 expressed on human cells …; assay: FACS titration on primary human dendritic cells, donor 359, 4 C
Experimental: as §1

[7] = molecular target: T3, Siglec-7-Fc (plate immobilized) (human, UniProt Q9Y286 19-357, limits assumed); assay: RBC solid adhesion assay, plate-coated Siglec-7-Fc, antibody 0.5 or 1.0 ug/ml; % of RBC binding without antibody
T3 construct: also called Siglec-7-Fc protein; immobilized Siglec-7; not shown: Fc part
T3 sequence (Q9Y286 19-357 limits assumed): as above
Method in brief: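 Plates coated overnight at RT with 5 μg/ml Siglec-7-Fc and blocked in PBS with BSA and 1 mM CaCl₂. Antibody (0.5 or 1.0 μg/ml) bound 1 h at RT, then RBCs (3.0×10⁶ cells/ml) added for 1 h at RT. Bound RBCs lysed and detected by peroxidase at 450 nm, expressed as % of binding without antibody.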

T1 sequence (Q9Y286 19-467): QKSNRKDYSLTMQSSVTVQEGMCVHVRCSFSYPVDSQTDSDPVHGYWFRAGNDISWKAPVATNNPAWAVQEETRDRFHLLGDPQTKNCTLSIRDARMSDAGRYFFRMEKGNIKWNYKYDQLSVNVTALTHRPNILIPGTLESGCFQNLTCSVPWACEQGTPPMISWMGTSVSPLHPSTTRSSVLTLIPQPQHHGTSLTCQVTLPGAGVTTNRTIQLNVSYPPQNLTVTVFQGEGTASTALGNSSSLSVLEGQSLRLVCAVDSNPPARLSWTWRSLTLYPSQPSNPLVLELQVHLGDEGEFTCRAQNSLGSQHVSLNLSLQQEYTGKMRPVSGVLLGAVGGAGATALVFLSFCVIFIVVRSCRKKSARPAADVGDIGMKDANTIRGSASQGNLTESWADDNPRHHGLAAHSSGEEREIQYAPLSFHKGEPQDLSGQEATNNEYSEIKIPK

B1: anti-Siglec-7 antibody 10B5 (antibody, V domains shown)
VH: QVHLQQSGPELVKPGASVKISCKASGYAFTNCWMNWVRQRPGKGLDWIGRIFPGNGHTNYSGKFKDKATLTEDKSSSTAYMQLSSLTSEDSAVYFCARDYSDYYFDYWGQGTTLTVSS
VL: DVQMTQTTSSLSASLGDRVTISCRASQDINTYLNWYQQKPDGTVKLLIYYTSRLHSGVPSRFSGSGSGTDYSLTISNLEQEDIATYFCQQGNTLPWTFGGGTKLEIK
notes: that light chain holds several Z and differs in its CDRs from S7-10B5.1 / 10B5L1; also called S7-10B5; mAb S7-10B5
EC50 of Siglec-7 cell surface downregulation, primary human dendritic cells, donor 362 [1]: 0.144 nM
EC50 of Siglec-7 cell surface downregulation, primary human dendritic cells, donor 363 [1]: 0.35 nM
EC50 of Siglec-7 cell surface downregulation, primary human dendritic cells, donor 364 [1]: 0.103 nM
EC50 of Siglec-7 cell surface downregulation, primary human dendritic cells, donor 365 [1]: 0.0713 nM
EC50 [2]: 1.43 nM
Kd [3]: 3 nM
% Positive [4]: 99.7%
MFI [4]: 6030
Percent Siglec-7 Surface Expression, DCs [5]: 16.8%
Percent Siglec-7 Surface Expression, Monocytes [5]: 6.7%
Percent Siglec-7 Surface Expression, U937 cells [5]: 36.5%
EC50 [6]: 1.16 nM
Percent RBC Binding to Siglec-7 [7]: 88.4%
